The subject of this series is MS2 coat protein. Kind of series: apparent KD of MS2 coat protein; designed switch direction (-1 OFF switch, 1 ON switch): 1; higher = weaker reporter binding. The gist of the method: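 SNAP-549-labelled MS2 coat protein was titrated, doubling from 0.7 or 1.5 nM to 3 µM, over designed RNA switches transcribed on Illumina chips by stalled E. coli RNA polymerase. Runs were done without input, with 200 uM small-molecule ligand, or with an oligonucleotide input. Apparent KD is the per-design median over clusters of curve-fitted normalised fluorescence.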

The mark [1] stands for this setting: input ligand: microRNA oligo, concentration not stated.
The mark [2] stands for this setting: Eterna round: R95, input ligand: FMN 200 uM.
The mark [3] stands for this setting: Eterna round: R95, input ligand: microRNA oligo, concentration not stated.
Where [4] appears, read: Eterna round: R95, input ligand: none.

As to “GGCUGCAAUUAUGAGGAUAUGUUCGGAUGAACAUGAGGAUCACCCAUGUGGCGAUAGCUAUCUGUGCAGAAGGUGUAGUGGUAGC [Edlexete] (Eterna round: R96, puzzle: Same State 2)”, the “apparent KD of MS2 coat protein” value runs as follows: (input ligand: FMN 200 uM) 57.9 nM; under setting [1], 90.7 nM; (input ligand: none) 186 nM.

As to “GGGAAGAGGGACAAGGAUAUGUCAAAAGAGACAUGAGGAUCACCCAUGUGGAGGUUGGAGCAGAGACAGAAGGUGUACGGAGAGA [JR_SS2_Sub009] (puzzle: Same State 2)”, the “apparent KD of MS2 coat protein” value under setting [2] came out at 69.7 nM, the “apparent KD of MS2 coat protein” value under setting [3] was 63 nM and the “apparent KD of MS2 coat protein” value under setting [4] came to 152 nM.

As to “GGGCCAGCCUGUGCUGGGCUUUAGCAUGCACAUGAGGAUCACCCAUGUCGUGUACAUGCUUUUUGCUCGUCUUUAAA [Photon Torp-08] (puzzle: Sensor for hsa-mir-208a)”, the “apparent KD of MS2 coat protein” value under setting [2] amounted to 80.2 nM, the “apparent KD of MS2 coat protein” value under setting [3] was determined as 17.4 nM and the “apparent KD of MS2 coat protein” value under setting [4] worked out at 84.1 nM.

“GGGCCAGCUUUUGCUGGGCCUUCGCUUGCACAUGAGGAUCACCCAUGUCGUGUACACGCUUCCUGCCCGUCUUUUUU [Photon Torp-18] (puzzle: Sensor for hsa-mir-208a)”: the “apparent KD of MS2 coat protein” value was found to be 21.2 nM under setting [2], 13.6 nM under setting [3] and 21.8 nM under setting [4].

In the case of “GGUAAACAUGAGGAUCACCCAUGUAAUAUAAUGGGAGGAUAUCUGAAUUAAUUAAAUUAAGGAGAAGGCCUAAUGU [Mat - Same State 1 - Mod of Eli - D50] (puzzle: Same State 1)”, the “apparent KD of MS2 coat protein” value worked out at 65.5 nM under setting [2], 462 nM under setting [3] and 410 nM under setting [4].

With “GGUAAGAAUUAAGGAUAUUGAAUACAUAUGUUUAACAUGAGGAUCACCCAUGUGGGUUGCGGUGUCGAGAAGGUAAAUUAAUAG [Mat - same State NG 2 - JL mod - D100] (Eterna round: R96, puzzle: Same State NG 2)”, the “apparent KD of MS2 coat protein” value (input ligand: FMN 200 uM) turned out to be 262 nM, the “apparent KD of MS2 coat protein” value under setting [1] turned out to be 166 nM and the “apparent KD of MS2 coat protein” value (input ligand: none) came out at 305 nM.

“GGUAUCGACACAGGAUAUGCUAUCCUUUGGGUAGCAGAAGGGUGAACAUGAGGAUCACCCAUGUAGGUGCCAGGGCGUGAGCCC [JL SSNG1 1.79] (Eterna round: R96, puzzle: Same State NG 1)”: the “apparent KD of MS2 coat protein” value was 368 nM (input ligand: FMN 200 uM), 94.1 nM under setting [1] and 787 nM (input ligand: none).

Turning to “GGUAUCGGCACAGGAUAUGCUAUCCUUUGGGUAGCAGAAGGGUGGACAUGAGGAUCACCCAUGUGGGUGCCAGGGCGUGAGCCC [JL SSNG1 1.85] (Eterna round: R96, puzzle: Same State NG 1)”, the “apparent KD of MS2 coat protein” value runs as follows: (input ligand: FMN 200 uM) 912 nM; under setting [1], 363 nM; (input ligand: none) 907 nM.

For the sequence “GGUCCAGCCUGAGCUGGACAAAAGCAUGUACAUGAGGAUCACCCAUGUCAUGUACAAGCUUUUUGCUCGUCAUAAAU [Mat - hsa-mir-208a - 96] (Eterna round: R96, puzzle: Sensor for hsa-mir-208a)”, the “apparent KD of MS2 coat protein” value (input ligand: FMN 200 uM) was found to be 573 nM, the “apparent KD of MS2 coat protein” value under setting [1] amounted to 16.3 nM and the “apparent KD of MS2 coat protein” value (input ligand: none) is 435 nM.

In the case of “GGUCCAGCCUGAGCUGGACAAAAGCAUGUACAUGAGGAUCACCCAUGUCAUGUACAAGCUUUUUGCUCGUCAUAAAU [Mat - hsa-mir-208a - 96] (puzzle: Sensor for hsa-mir-208a)”, the “apparent KD of MS2 coat protein” value under setting [2] amounted to 702 nM, the “apparent KD of MS2 coat protein” value under setting [3] came to 13.1 nM and the “apparent KD of MS2 coat protein” value under setting [4] is 668 nM.

Take “GGUCCAGCCUGAGCUGGACCACAGCAUGUACAUGAGGAUCACCCAUGUCAUGUACAAGCUUUUUGUUUAAAAUAAAA [Sensorship 13 - Jieux - Sensor for hsa-mir-208a] (puzzle: Sensor for hsa-mir-208a)”: the “apparent KD of MS2 coat protein” value is, setting by setting: under setting [2], 261 nM; under setting [3], 30.5 nM; under setting [4], 209 nM.

“GGUCGGACUCAACAUGAGGAUCACCCAUGUGCGGAAACGCCAUAGGAUAUCUGUCCGAAAAGGUCAGAGAAGGGUGAACCGACC [Fiskers NG3ss - 66] (Eterna round: R96, puzzle: Same State NG 3)”: the “apparent KD of MS2 coat protein” value reads like this: (input ligand: FMN 200 uM) 435 nM; under setting [1], 263 nM; (input ligand: none) 471 nM.

Consider “GGUGAGAGAGUCAAGGAUAUGAAAGGAGAGACAUGAGGAUCACCCAUGUAAGAGAGAGAGGAGAGUUAGAAGGUGAAGAGAGUGG [Altered State 2-24 - Jieux - Same State 2] (puzzle: Same State 2)”, for which the “apparent KD of MS2 coat protein” value under setting [2] turned out to be 42.7 nM, the “apparent KD of MS2 coat protein” value under setting [3] was determined as 39.5 nM and the “apparent KD of MS2 coat protein” value under setting [4] is 64.7 nM.

“GGUGCCAAAUAAGCCUACAUGAGGAUCACCCAUGUAUGUAGGCAGGAUAUCGUUUGCAAAGCAAACGAGAAGGGCCUAGGCACC [Mat - Same State NG 3 - JL Mod - D62] (Eterna round: R96, puzzle: Same State NG 3)”: the “apparent KD of MS2 coat protein” value runs as follows: (input ligand: FMN 200 uM) 19.1 nM; under setting [1], 18.5 nM; (input ligand: none) 35.2 nM.

Take “GGUGCCAAAUAAGCCUACAUGAGGAUCACCCAUGUAUGUAGGUAGGAUAUCGUAUGCAAAGCAUACGAGAAGGGCCUAGGCACC [Mat - Same State NG 3 - JL Mod - D60] (Eterna round: R96, puzzle: Same State NG 3)”: the “apparent KD of MS2 coat protein” value runs as follows: (input ligand: FMN 200 uM) 18.1 nM; under setting [1], 37.3 nM; (input ligand: none) 60.7 nM.

Turning to “GGUGCCAAUAAAGCCUACAUGAGGAUCACCCAUGUAUGUAGGCAGGAUAUCGUUUGCUUUGCAAACGAGAAGGGCCUAGGCACC [JL SSNG3 1.21] (Eterna round: R96, puzzle: Same State NG 3)”, the “apparent KD of MS2 coat protein” value came out at 16.3 nM (input ligand: FMN 200 uM), 24.3 nM under setting [1] and 29.8 nM (input ligand: none).

Regarding “GGUGCGAAUAAAGCCUACAUGAGGAUCACCCAUGUAUGUAGGCAGGAUAUCGUUUGCUUUGCAAACGAGAAGGGCUGACGCACC [JL SSNG3 1.17] (Eterna round: R96, puzzle: Same State NG 3)”, the “apparent KD of MS2 coat protein” value by setting is: (input ligand: FMN 200 uM) 27.4 nM; under setting [1], 37.7 nM; (input ligand: none) 63.6 nM.

With “GGUGGGUUGCUGCCGGCACAUGAGGAUCACCCAUGUUUUGGGAAGGAUAUGGUACCUCUUUGGUGCCAGAAGGUCCCGUUGGUG [salish99_SSNG3_r04_713] (Eterna round: R96, puzzle: Same State NG 3)”, the “apparent KD of MS2 coat protein” value (input ligand: FMN 200 uM) was found to be 2020 nM, the “apparent KD of MS2 coat protein” value under setting [1] stood at 503 nM and the “apparent KD of MS2 coat protein” value (input ligand: none) was 1740 nM.

In the case of “GUAAAACAUGAGGAUCACCCAUGUAAUAAUAUGGGAGGAUAUCAGAAUGUAUGUAUGUAAUGAGAAGGCCUAAAUG [Mat - Same State 1 - Mod of Eli - D74] (puzzle: Same State 1)”, the “apparent KD of MS2 coat protein” value was found to be 101 nM under setting [2], 1610 nM under setting [3] and 1120 nM under setting [4].

As to “GUAAGGCAAGCUUUUUUCUCGUAGUGUAAACAUGAGGAUCACCCAUGUGCUCGCCCUGGAUCUUUGAAUCGCAGAAA [Ritiorreon] (puzzle: Sensor for hsa-mir-208a)”, the “apparent KD of MS2 coat protein” value by setting is: under setting [2], 44.9 nM; under setting [3], 23.1 nM; under setting [4], 49.5 nM.

For the sequence “GUACAGAUUAUAGGAUAUCACGUCGAUUAGACGUGAGAAGGAUAAUCCCACAUGAAUAUUAAUACAUGAGGAUCACCCAUGUAC [SSNG1/18-B2] (Eterna round: R96, puzzle: Same State NG 1)”, the “apparent KD of MS2 coat protein” value reads like this: (input ligand: FMN 200 uM) 24.2 nM; under setting [1], 22 nM; (input ligand: none) 30.5 nM.

For “GUACAUAUCGUAGGAUAUCACGUCGAAUAGACGUGAGAAGGACGGUCCCACAUGAAUAUUAAUACAUGAGGAUCACCCAUGUAC [MOD SSNG 1/18-A1 by Brourd] (Eterna round: R96, puzzle: Same State NG 1)”, the “apparent KD of MS2 coat protein” value was 92.5 nM (input ligand: FMN 200 uM), 41.8 nM under setting [1] and 43 nM (input ligand: none).

As to “GUAGAUGUAGAGGAGGAUAUUCAAUGAGGAACAUGAGGAUCACCCAUGUAAGAGAGAGAUGAUGAGAAGAAGGCUUAGAGAGAUG [Altered State 2-2 - Jieux - Same State 2] (puzzle: Same State 2)”, the “apparent KD of MS2 coat protein” value came to 32.3 nM under setting [2], 31.3 nM under setting [3] and 46 nM under setting [4].

Consider “GUAGCAUACCGAGGAUAUUCAUACAUGAGGAUCACCCAUGUUAUUAUAGGACGAUUACGUCCUUGGGAGAAGGCGGAAUGCUAC [Xeonanis - 20 Mod29] (Eterna round: R96, puzzle: Same State NG 2)”, for which the “apparent KD of MS2 coat protein” value amounted to 10.2 nM (input ligand: FMN 200 uM), 11.8 nM under setting [1] and 15.1 nM (input ligand: none).

For the sequence “GUAGCAUACCGAGGAUAUUCAUAUUAACAUGAGGAUCACCCAUGUUUUUAGGCCAAAAGGCCUUGGGAGAAGGCGGAAUGCUAC [Xeonanis - 20 Mod6] (Eterna round: R96, puzzle: Same State NG 2)”, the “apparent KD of MS2 coat protein” value (input ligand: FMN 200 uM) was 11.4 nM, the “apparent KD of MS2 coat protein” value under setting [1] is 12.8 nM and the “apparent KD of MS2 coat protein” value (input ligand: none) is 16.1 nM.

“GUAGCAUACCGAGGAUAUUCAUAUUACAUGAGGAUCACCCAUGUUAAAGAUAGGCGAAAGCCUUGGGAGAAGGCGGAAUGCUAC [Xeonanis - 20 Mod68] (Eterna round: R96, puzzle: Same State NG 2)”: the “apparent KD of MS2 coat protein” value (input ligand: FMN 200 uM) came to 8.61 nM, the “apparent KD of MS2 coat protein” value under setting [1] came out at 10.7 nM and the “apparent KD of MS2 coat protein” value (input ligand: none) amounted to 11.3 nM.

Source of the values: the supplement of paper PMC9170038.
